The values below come from PMC9365860 (Cell Reports, 2022).

The target in the experiment is Recombinant stabilized SARS-CoV-2 spike for ELISA (Wuhan) (SARS-CoV-2, Wuhan, UniProt P0DTC2, stabilised). Kind of experiment: ELISA. As to conditions: both partners purified.

B1: P008_60 IgG (antibody, V domains shown)
VH: EVQLVESGGGVVQPGRSLRLTCAASGFIFSSYGMHWVRQAPGKGLEWVAVISYDGSYKYYADSVKGRFTISRDNSKNTLYLQMNSLRAEDTAVYYCTKADYYDFWSGYQKTYYYYMDVWGKGTTVTISS
VL: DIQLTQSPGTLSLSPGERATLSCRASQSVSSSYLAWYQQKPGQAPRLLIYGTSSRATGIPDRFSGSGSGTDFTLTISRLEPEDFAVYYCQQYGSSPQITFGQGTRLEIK
notes: also called mAb P008_60; P008_060; source: HEK-293F, co-transfected heavy and light plasmids, purified (protein G)
For the molecule B1, the binding result is listed as “binds”.
